From US20250002610A1 (Genmab, published 2025)

How the values were obtained:
[1] = molecular target: T1, human FAPα (Fibroblast activation protein alpha), cell surface expressed (human, UniProt Q12884 1-760); assay: flow cytometry, human lung fibroblasts, n = 3
T1 construct: Endogenous on human lung fibroblasts and CAFs
T1 sequence: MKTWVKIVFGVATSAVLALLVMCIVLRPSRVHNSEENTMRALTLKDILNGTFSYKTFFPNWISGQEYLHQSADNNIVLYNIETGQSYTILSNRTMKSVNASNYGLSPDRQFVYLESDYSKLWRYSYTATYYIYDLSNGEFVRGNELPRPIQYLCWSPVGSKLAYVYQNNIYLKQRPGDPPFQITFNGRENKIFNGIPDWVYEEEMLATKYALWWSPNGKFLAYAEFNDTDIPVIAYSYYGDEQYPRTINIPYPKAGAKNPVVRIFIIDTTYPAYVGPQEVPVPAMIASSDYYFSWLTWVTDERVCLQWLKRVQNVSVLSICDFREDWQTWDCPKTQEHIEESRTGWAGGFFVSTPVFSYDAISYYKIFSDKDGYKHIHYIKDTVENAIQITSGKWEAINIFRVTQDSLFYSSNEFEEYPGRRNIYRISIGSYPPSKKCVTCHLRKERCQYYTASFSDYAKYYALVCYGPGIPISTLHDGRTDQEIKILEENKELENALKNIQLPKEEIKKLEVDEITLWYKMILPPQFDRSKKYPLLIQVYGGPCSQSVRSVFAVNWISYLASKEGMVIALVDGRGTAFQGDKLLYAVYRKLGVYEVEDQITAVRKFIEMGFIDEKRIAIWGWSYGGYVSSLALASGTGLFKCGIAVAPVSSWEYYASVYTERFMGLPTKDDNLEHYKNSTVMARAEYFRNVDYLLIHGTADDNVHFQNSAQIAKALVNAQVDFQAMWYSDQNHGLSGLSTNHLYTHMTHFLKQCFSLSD
Method: Binding of bispecific or monoclonal antibodies carrying the anti-FAPα arm derived from IgG1-FAPα-FERL (BisG1-FAPα-FERL/DR4-FERR, BisG1-FAPα-FERL/b12-FERR, and IgG1-FAPα-FERL) to cell surface expressed human FAPα was analyzed by flow cytometry using human lung fibroblasts and CAFs, which endogenously express FAPα. BisG1-b12-FERL/b12-FERR was used as negative control.
Human lung fibroblasts and CAFs (50,000 cells/well) were seeded in 96-Well round bottom plates (Greiner Bio-one, Cat #650101). Antibody dilutions were prepared using fluorescence-activated cell sorting (FACS) buffer, consisting of phosphate buffer saline (PBS, Lonza, Cat #BE17-517Q)+1% Bovine Serum Albumin (BSA, Roche, Cat #10735086001)+0.02% Sodium Azide (Bio-World, Cat #41920044-3). Plates were centrifuged, supernatant was removed, cells were resuspended in 50 μL of human Fc Block (BD, Cat #564220, diluted 1:100 in FACS buffer) and 50 μL of viability stain TO-PRO-3 Iodide (Thermo Fisher, Cat #T3605, diluted 1: 25,000 in FACS buffer), and incubated for 15 min at 4° C. Plates were washed three times with FACS buffer. Plates were centrifuged, supernatant was removed, cells were resuspended in 50 μL of antibody dilutions (concentration range 90-0.0005 μg/mL, three-fold dilution steps using FACS buffer) of BisG1-FAPα-FERL/DR4-FERR, BisG1-FAPα-FERL/b12-FERR, BisG1-b12-FERL/b12-FERR (top six concentrations only for CAFs culture) or IgG1-FAPα-FERL (top four concentrations only for CAFs culture) and incubated for 30 min at 4° C. Cells were washed three times with FACS buffer and resuspended in 50 μL of Fluorescein isothiocyanate (FITC)-labeled polyclonal antibody goat anti-mouse IgG1 (Jackson Immuno Research, Cat #109-096-097, diluted 1:100 in FACS buffer). […] Antibody binding to viable cells (TO-PRO-3 negative) was analyzed by flow cytometry on a FACSCelesta™ (BD biosciences) and data were processed using FlowJo_v10.8.1 (FlowJo LLC). Geomean fluorescence intensity, gMFI, was determined and visualized using GraphPad Prism.

[2] = molecular target: T2, human DR4 (Death Receptor 4), cell surface expressed on human tumor cell lines (human, UniProt O00220 24-468); assay: flow cytometry, HCT-116 cells, n = 3
T2 construct: also called TNFRSF10A; TRAIL-R1
T2 sequence: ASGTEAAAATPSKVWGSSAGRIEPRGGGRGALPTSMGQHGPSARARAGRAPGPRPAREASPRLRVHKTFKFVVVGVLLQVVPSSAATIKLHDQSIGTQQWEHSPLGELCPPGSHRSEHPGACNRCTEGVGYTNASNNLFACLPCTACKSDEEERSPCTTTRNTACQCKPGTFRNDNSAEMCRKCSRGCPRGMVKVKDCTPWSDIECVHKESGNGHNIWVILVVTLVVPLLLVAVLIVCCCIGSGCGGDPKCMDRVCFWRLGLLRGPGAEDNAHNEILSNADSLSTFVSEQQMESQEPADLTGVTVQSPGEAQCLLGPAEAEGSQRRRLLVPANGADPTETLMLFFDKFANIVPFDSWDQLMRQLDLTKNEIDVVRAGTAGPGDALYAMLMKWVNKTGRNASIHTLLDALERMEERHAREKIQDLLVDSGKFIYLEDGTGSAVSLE

B1: BisG1-FAPα-FERL/DR4-FERR (bispecific antibody, human IgG1, kappa, lambda)
heavy 1: EVQLLESGGGLVQPGGSPRLSCEASGFTFSSYALSWVRQAPGKGLEWVSAISGSGGGRYYADSVKGRFTISRDNSKNTLFLQMNSLRAEDTAVYYCAKEGYSSSGTYWDHWGQGTLVTVSSASTKGPSVFPLAPSSKSTSGGTAALGCLVKDYFPEPVTVSWNSGALTSGVHTFPAVLQSSGLYSLSSVVTVPSSSLGTQTYICNVNHKPSNTKVDKRVEPKSCDKTHTCPPCPAPEFERGPSVFLFPPKPKDTLMISRTPEVTCVVVDVSHEDPEVKFNWYVDGVEVHNAKTKPREEQYNSTYRVVSVLTVLHQDWLNGKEYKCKVSNKALPAPIEKTISKAKGQPREPQVYTLPPSREEMTKNQVSLTCLVKGFYPSDIAVEWESNGQPENNYKTTPPVLDSDGSFLLYSKLTVDKSRWQQGNVFSCSVMHEALHNHYTQKSLSLSPG
light 1: AIQMTQSPSSVSASVGDRVTITCRASQGVSSWLAWYQQKPGRAPKLLIYVASTLQSGVPSRFSGSGSGTDFTLTINSLQPEDFATYYCQQANSFPPTFGQGTRLEMKRTVAAPSVFIFPPSDEQLKSGTASVVCLLNNFYPREAKVQWKVDNALQSGNSQESVTEQDSKDSTYSLSSTLTLSKADYEKHKVYACEVTHQGLSSPVTKSFNRGEC
heavy 2: QVQLQESGPGLVKPSGTLSLTCAVSGGSISSYSWWSWIRQPPGKGLEWIGELYHSGSTNYNPSLKSRVTISVDKSKNQFSLKLRSVTAADTAVYYCVRGVATIDYWGQGTLVTVSSASTKGPSVFPLAPSSKSTSGGTAALGCLVKDYFPEPVTVSWNSGALTSGVHTFPAVLQSSGLYSLSSVVTVPSSSLGTQTYICNVNHKPSNTKVDKRVEPKSCDKTHTCPPCPAPEFERGPSVFLFPPKPKDTLMISRTPEVTCVVVDVSHEDPEVKFNWYVDGVEVHNAKTKPREEQYNSTYRVVSVLTVLHQDWLNGKEYKCKVSNKALPAPIEKTISKAKGQPREPQVYTLPPSREEMTKNQVSLTCLVKGFYPSDIAVEWESNGQPENNYKTTPPVLDSDGSFFLYSRLTVDKSRWQQGNVFSCSVMHEALHNHYTQKSLSLSPG
light 2: QSALTQPPSASGSPGQSVTISCTGTSSDVGGYNFVSWYQQDPGKAPKLLIYEVTKRPSGVPDRFSGSKSGNTASLTVSGLQAEDEADYYCSSYAGSNNVMFGGGTKLTVLGQPKAAPSVTLFPPSSEELQANKATLVCLISDFYPGAVTVAWKADSSPVKAGVETTTPSKQSNNKYAASSYLSLTPEQWKSHRSYSCQVTHEGSTVEKTVAPTECS
notes: Human IgG1 bispecific made by controlled Fab-arm exchange of IgG1-FAPα-FERL and IgG1-DR4-FERR; monovalent for FAPα and for DR4; also called GEN1057
EC50 [1]: 0.059 µg/mL | EC50 [2]: 0.53 µg/mL
